Assay results published in patent US20170119913A1 (3B PHARMACEUTICALS, published 2017).

Target: T1, CCR1 (h), C-C chemokine receptor type 1 (human (printed as (h)), UniProt P32246 1-355)
T1 sequence (looked up): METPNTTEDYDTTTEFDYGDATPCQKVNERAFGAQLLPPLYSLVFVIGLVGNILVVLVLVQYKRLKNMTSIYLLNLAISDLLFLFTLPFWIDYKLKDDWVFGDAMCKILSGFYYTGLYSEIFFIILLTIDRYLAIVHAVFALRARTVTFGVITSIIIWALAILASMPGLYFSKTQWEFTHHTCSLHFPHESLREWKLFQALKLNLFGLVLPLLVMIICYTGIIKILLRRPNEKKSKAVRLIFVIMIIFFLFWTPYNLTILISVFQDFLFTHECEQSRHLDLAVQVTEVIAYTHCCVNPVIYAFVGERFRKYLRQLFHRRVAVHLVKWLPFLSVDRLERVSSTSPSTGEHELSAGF
Assay: Cerep ExpresSProfile radioligand competition binding, reference compound (agonist radioligand)

B1: MIP-1alpha (ligand, UniProt P10147 24-92, looked up)
chain: SLAADTPTACCFSYTSRQIPQNFIADYFETSSQCSKPGVIFLTKRSRQVCADPSEEWVQKYVSDLELSA
Ki: 0.041 nM
